According to article PMC5095173, “Disulfide-activated protein kinase G Iα regulates cardiac diastolic relaxation and fine-tunes the Frank–Starling response” (Nature Communications, 2016):

B1: Akap1 pS103 (protein, UniProt O88884 30-854, looked up)
A-kinase anchor protein 1, …: KDRLSSNGKQVGTLKVGPAIEDRLPTEEACPGVLSVTPSVTQPPGKEEQRSMDRPLSDPPALPRTRQVRRRSESSGNLPSIVDTRLQAGQCSDENSKVVLSLMGDEAKSIPLGRPLFPKDLSFPYEAVEGCKQESALGRTPGRGWLSQCAASGENARETGGAEGTGDAVLGESVLEEGLLPQECVSEVEKSEFPILAPGGGGGEKVRSGPPQVDELLKKEEYIVGKLPSSFVGPVHSELVKDEGALVPQVKGSQDRSLARELDKDKTLPEKDQIEQTAFQIISQVILEATEEIRATTVGKTVAQVHPTPGTQPQGQEESCVPASQETSLGQEIPDPASTRTGATASPSAGAPPPKTYVSCLSSPLSGPTKDQKPKNSAHHISLAPCPPPVTPQRQSLDGASNPRGDDTFVTCTSNNSQSVLSVTSLGLCSDPVSTSRLEDSCTETISSSGDKAVTPPLPDSTEPFSNGVLKEELSDLGTEDGWTMDTEADHSGGSDGNSMDSVDSCCGLTKPDSPQTVQAGSNPKKVDLIIWEIEVPKHLVGRLIGKQGRYVSFLKQTSGAKIYISTLPYTQNIQICHIEGSQHHVDKALNLIGKKFKELNLTNIYAPPLPSLALPSLPMTSWLMLPDGITVEVIVVNQVNAGHLFVQQHTHPTFHALRSLDQQMYLCYSQPGIPTLPTPVEITVICAAPGADGAWWRAQVVASYEETNEVEIRYVDYGGYKRVKVDVLRQIRSDFVTLPFQGAEVLLDSVVPLSDDDHFSPEADAAMSEMTGNTALLAQVTSYSATGLPLIQLWSVVGDEVVLINRSLVERGLAQWVDSCYASL
modifications: phosphorylated at S103
B2: Atp5a1 pS184 (protein, UniProt P15999 44-553, looked up)
ATP synthase F(1) complex …: QKTGTAEMSSILEERILGADTSVDLEETGRVLSIGDGIARVHGLRNVQAEEMVEFSSGLKGMSLNLEPDNVGVVVFGNDKLIKEGDIVKRTGAIVDVPVGDELLGRVVDALGNAIDGKGPVGSKIRRRVGLKAPGIIPRISVREPMQTGIKAVDSLVPIGRGQRELIIGDRQTGKTSIAIDTIINQKRFNDGTDEKKKLYCIYVAIGQKRSTVAQLVKRLTDADAMKYTIVVSATASDAAPLQYLAPYSGCSMGEYFRDNGKHALIIYDDLSKQAVAYRQMSLLLRRPPGREAYPGDVFYLHSRLLERAAKMNDSFGGGSLTALPVIETQAGDVSAYIPTNVISITDGQIFLETELFYKGIRPAINVGLSVSRVGSAAQTRAMKQVAGTMKLELAQYREVAAFAQFGSDLDAATQQLLSRGVRLTELLKQGQYSPMAIEEQVAVIYAGVRGYLDKLEPSKITKFESAFLSHVVSQHQSLLGNIRSDGKISEQSDAKLKEIVTNFLAGFEP
modifications: phosphorylated at S184
B3: Atp5a1 pS76 (protein, UniProt P15999 44-553, looked up)
ATP synthase F(1) complex …: QKTGTAEMSSILEERILGADTSVDLEETGRVLSIGDGIARVHGLRNVQAEEMVEFSSGLKGMSLNLEPDNVGVVVFGNDKLIKEGDIVKRTGAIVDVPVGDELLGRVVDALGNAIDGKGPVGSKIRRRVGLKAPGIIPRISVREPMQTGIKAVDSLVPIGRGQRELIIGDRQTGKTSIAIDTIINQKRFNDGTDEKKKLYCIYVAIGQKRSTVAQLVKRLTDADAMKYTIVVSATASDAAPLQYLAPYSGCSMGEYFRDNGKHALIIYDDLSKQAVAYRQMSLLLRRPPGREAYPGDVFYLHSRLLERAAKMNDSFGGGSLTALPVIETQAGDVSAYIPTNVISITDGQIFLETELFYKGIRPAINVGLSVSRVGSAAQTRAMKQVAGTMKLELAQYREVAAFAQFGSDLDAATQQLLSRGVRLTELLKQGQYSPMAIEEQVAVIYAGVRGYLDKLEPSKITKFESAFLSHVVSQHQSLLGNIRSDGKISEQSDAKLKEIVTNFLAGFEP
modifications: phosphorylated at S76
B4: Lrpap1 pS245 (protein, UniProt Q99068 34-360, looked up)
Alpha-2-macroglobulin …: HGGKYSREKNEPEMAAKRESGEEFRMEKLNQLWEKAKRLHLSPVRLAELHSDLKIQERDELNWKKLKVEGLDGDGEKEAKLVHNLNVILARYGLDGRKDTQTVHSNALNEDTQDELGDPRLEKLWHKAKTSGKFSSEELDKLWREFLHYKEKIHEYNVLLDTLSRAEEGYENLLSPSDMTHIKSDTLASKHSELKDRLRSINQGLDRLRKVSHQGYGPATEFEEPRVIDLWDLAQSANFTEKELESFREELKHFEAKIEKHNHYQKQLEISHQKLKHVESIGDPEHISRNKEKYVLLEEKTKELGYKVKKHLQDLSSRVSRARHNEL
modifications: phosphorylated at S245
B5: Crip2 pS114 (protein, UniProt P36201 1-208, looked up)
Cysteine-rich protein 2: MASKCPKCDKTVYFAEKVSSLGKDWHKFCLKCERCNKTLTPGGHAEHDGKPFCHKPCYATLFGPKGVNIGGAGSYIYEKPPTEAPQVTGPIEVPVVRTEERKTSGPPKGPSKASSVTTFTGEPNMCPRCNKRVYFAEKVTSLGKDWHRPCLRCERCSKTLTPGGHAEHDGQPYCHKPCYGILFGPKGVNTGAVGSYIYDKDPEGTVQP
modifications: phosphorylated at S114
B6: Crip2 pS19 (protein, UniProt P36201 1-208, looked up)
Cysteine-rich protein 2: MASKCPKCDKTVYFAEKVSSLGKDWHKFCLKCERCNKTLTPGGHAEHDGKPFCHKPCYATLFGPKGVNIGGAGSYIYEKPPTEAPQVTGPIEVPVVRTEERKTSGPPKGPSKASSVTTFTGEPNMCPRCNKRVYFAEKVTSLGKDWHRPCLRCERCSKTLTPGGHAEHDGQPYCHKPCYGILFGPKGVNTGAVGSYIYDKDPEGTVQP
modifications: phosphorylated at S19
B7: Pfkl pS775 (protein, UniProt P30835 2-780, looked up)
ATP-dependent …: ATVDLEKLRMSGAGKAIGVLTSGGDAQGMNAAVRAVTRMGIYVGAKVFLIYEGYEGLVEGGENIKPANWLSVSNIIQLGGTIIGSARCKAFTTREGRLAAAYNLLQHGITNLCVIGGDGSLTGANIFRNEWGSLLEELVKEGKISESTAQNYAHLSIAGLVGSIDNDFCGTDMTIGTDSALHRIMEVIDAITTTAQSHQRTFVLEVMGRHCGYLALVSALASGADWLFIPEAPPEDGWENFMCERLGETRSRGSRLNIIIIAEGAIDRHGKPISSSYVKDLVVQRLGFDTRVTVLGHVQRGGTPSAFDRVLSSKMGMEAVMALLEATPDTPACVVSLSGNQSVRLPLMECVQVTKDVQKAMDEKRFDEAIQLRGRSFENNWKIYKLLAHQKVSKEKSNFSLAILNVGAPAAGMNAAVRSAVRTGISEGHTVYVVHDGFEGLAKGQVQEVGWHDVAGWLGRGGSMLGTKRTLPKPHLEAIVENLRTYNIHALLVIGGFEAYEGVLQLVEARGRYEELCIVMCVIPATISNNVPGTDFSLGSDTAVNAAMESCDRIKQSASGTKRRVFIVETMGGYCGYLATVTGIAVGADAAYVFEDPFNIHDLKANVEHMTEKMKTDIQRGLVLRNEKCHEHYTTEFLYNLYSSEGRGVFDCRTNVLGHLQQGGAPTPFDRNYGTKLGVKAMLWMSEKLRDVYRKGRVFANAPDSACVIGLRKKVVAFSSVTELKKETDFEHRMPREQWWLNLRLMLKMLAHYRISMADYVSGELEHVTRRTLSIDKGF
modifications: phosphorylated at S775
B8: Clasp2 pS436 (protein, UniProt Q99JD4 1-1286, looked up)
CLIP-associating protein 2: MRRLICKRICDYKSFDDEESVDGNRPSSAASAFKVPAPKTPGNPVNSARKPGSAGGPKAGGTSKEGGAGAVDEDDFIKAFTDVPSIQIYSSRELEETLNKIREILSDDKHDWDQRANALKKIRSLLVAGAAQYDCFFQHLRLLDGALKLSAKDLRSQVVREACITVAHLSTVLGNKFDHGAEAIVPTLFNLVPNSAKVMATSGCAAIRFIIRHTHVPRLIPLITSNCTSKSVPVRRRSFEFLDLLLQEWQTHSLERHAAVLVETIKKGIHDADAEARVEARKTYMGLRNHFPGEAETLYNSLEPSYQKSLQTYLKSSGSVASLPQSDRSSSSSQESLNRPFSSKWSTANPSAVAGRVSVGGSKASPLPGSLQRSRSDIDVNAAAGAKAHHAAGQAVRSGRLGAGALNPGSYASLEDTSDKMDGTASEDGRVRAKLSTPLVAVGNAKTDSRGRSRTKMVSQSQPGSRSGSPGRVLTTTALSTVSSGAQRILVNSASAQKRSKIPRSQGCSREASPSRLSVARSSRIPRPSVSQGCSREASRESSRDTSPVRSFQPLGPGYGMSQSSRLSSSVSAMRVLNTGSDVEEAVADALLLGDIRTKKKPARRRYESYGMHSDDDANSDASSACSERSYSSRNGSIPTYMRQTEDVAEVLNRCASSNWSERKEGLLGLQNLLKNQRTLSRVELKRLCEIFTRMFADPHGKVFSMFLETLVDFIQVHKDDLQDWLFVLLTQLLKKMGADLLGSVQAKVQKALDVTRESFPNDLQFNILMRFTVDQTQTPSLKVKVAILKYIETLAKQMDPGDFINSSETRLAVSRVITWTTEPKSSDVRKAAQSVLISLFELNTPEFTMLLGALPKTFQDGATKLLHNHLRNTGNGTQSSMGSPLTRPTPRSPANWSSPLTSPTNTSQNTLSPSAFDYDTENMNSEDIYSSLRGVTEAIQNFSFRSQEDMSEPLKRDPKKEDGDTVCSGPGMSDPRAGGDAPDSSQPALDNKASLLHSVPLHSSPRSRDYNPYNYSDSISPFNKSALKEAMFDDDADQFPDDLSLDHSDLVAELLKELSNHNERIEERKIALYELMKLTQEESFSVWDEHFKTILLLLLETLGDKEPTIRALALKVLKEILRHQPARFKNYAELTVMKTLEAHKDPHKEVVRSAEEAASVLATSISPEQCIKVLCPIIQTADYPINLAAIKMQTKVIERVSKETLNLLLPEIMPGLIQGYDNSESSVRKACVFCLVAVHAVIGDELKPHLSQLTGSKMKLLNLYIKRAQTGSAGADPTTDVSGQS
modifications: phosphorylated at S436
B9: Fdx1 pS181 (protein, UniProt P24483 65-188, looked up)
Adrenodoxin, mitochondrial: SSSEDKVTVHFKNRDGETLTTKGKVGDSLLDVVIENNLDIDGFGACEGTLACSTCHLIFEDHIYEKLDAITDEENDMLDLAFGLTNRSRLGCQVCLTKAMDNMTVRVPEAVADVRQSVDMSKNS
modifications: phosphorylated at S181

Assays:
[1] = system: PKGIα (analogue-sensitive C42S/M438G), cGMP-activated; assay: Chemical genetic phosphoproteomic screen, cGMP-activated PKGIα C42S/M438G versus unactivated control; assay type: biochemical, human PKGIα; substrates in rat heart homogenate; settings: control = PKGIα C42S/M438G
Summary of the method: (§1)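 Analogue-sensitive human PKGIα mutants (M438G, air-oxidized to disulfide dimer; C42S/M438G, cGMP-activated), expressed in 293-F cells, thiophosphorylate substrates in rat left-ventricle lysate (20 mg ml) using N6-alkylated ATPγS. Thiophosphopeptides are recovered by covalent capture and identified with sites by LC–MS/MS, each compared against an unactivated control.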

[2] = system: PKGIα (analogue-sensitive M438G), disulfide-activated; assay: Chemical genetic phosphoproteomic screen, disulfide-activated PKGIα M438G versus unactivated control; assay type: biochemical, human PKGIα; substrates in rat heart homogenate; settings: control = PKGIα C42S/M438G
Summary of the method: as §1

Molecule	log2 fold change cGMP vs Control [1]	log2 fold change Disulfide vs Control [2]
B1	1.156	0.8425
B2	3.438	1.986
B3	2.023	1.372
B4	2.6435	0.3181
B5	3.456	1.062
B6	2.804	1.661
B7	4.1288	1.482
B8	1.792	0.8616
B9	5.584	2.723
